The assay has as its target directed activation strategy TMPRSS2 (activated TMPRSS2 ectodomain, residues 109-492, DDDDK255 activation motif) (human) (UniProt O15393). Put plainly: enzyme inhibition assay.

A word on the Ki: it is the dissociation constant of the complex between target and ligand, obtained from inhibition or displacement. A lower Ki goes with tighter binding. “sunflower trypsin inhibitor-1 (from UniProt Q4GWU5 40-56) (peptide)” returned a Ki of 0.4 µM.
